The record followed here is the supplement of paper PMC9170038.

The test system of the series is MS2 coat protein. The experiment in a line: apparent KD of MS2 coat protein; designed switch direction (-1 OFF switch, 1 ON switch): -1; higher = weaker reporter binding. Summed up:
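Normalised cluster fluorescence was curve-fitted, and each design's median over clusters is its apparent KD. Before this, SNAP-549-labelled MS2 coat protein was titrated from 0.7 or 1.5 nM, doubling to 3 µM, over RNA switches transcribed on Illumina chips by stalled E. coli RNA polymerase. Titrations had no input, 200 uM small-molecule ligand, or an oligonucleotide input, and steps lasted 0.8–1.5 h (lowest) to 10–20 min (highest).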

Setting [1] is: input ligand: microRNA oligo, concentration not stated.
Where [2] appears, read: Eterna round: R95, input ligand: microRNA oligo, concentration not stated.
The mark [3] stands for this setting: Eterna round: R95, input ligand: FMN 200 uM.
Setting [4] is: Eterna round: R95, input ligand: none.

Consider “CGUCGAAAUGUAGGAUAUCUGCACGUGUAGUGCAGAGAAGGACAUGAGGAUCACCCAUGUAGAUCACGACGAAUUAAUUUAAUU [ENG1/5-C3] (Eterna round: R96, puzzle: Exclusion NG 1)”, for which the “apparent KD of MS2 coat protein” value (input ligand: FMN 200 uM) was found to be 468 nM, the “apparent KD of MS2 coat protein” value under setting [1] stood at 50.4 nM and the “apparent KD of MS2 coat protein” value (input ligand: none) was found to be 56.9 nM.

On to “CGUGCGUAUGUGAGGAUAUGCUGGUCCUUGGAUCAGCAGAAGGCACAUGAGGAUCACCCAUGUGGUGUCGUACC [salish99_Bmod_Ex4_001] (puzzle: Brourd's mod of Exclusion 4)”, for which, under setting [2], the “apparent KD of MS2 coat protein” value turned out to be 170 nM.

In the case of “CGUGUCUUUUACGUGAGUGGUGGGUGCAACAGGUGGGUUACAUGAGGAUCACCCAUGUGCUCACUUGCUCGUCUUUU [Grok-var2-09] (puzzle: Sensor v3, turn-off variant 2)”, the “apparent KD of MS2 coat protein” value is, setting by setting: under setting [3], 60.7 nM; under setting [2], 39.3 nM; under setting [4], 58.1 nM.

Take “CGUGUGUCAGGAUAUACGUUGGGCCAGCAUGGCUAAAGACAGUAGAAGGGACAUGAGGAUCACCCAUGUGGAGU [Eternabot (L2) Solution 4] (Eterna round: R97, puzzle: Exclusion 4)”: the “apparent KD of MS2 coat protein” value (input ligand: FMN 200 uM) was found to be 571 nM and the “apparent KD of MS2 coat protein” value (input ligand: none) stood at 78.9 nM.

For “CGUUCGCGAGGAUAUGCAUUCGAGUCCACUACGUGUCUGGGACUUGAGGAUCACCCAAGUAGAAGGCGCCUCCA [salish99_ex2_r4_650] (Eterna round: R97, puzzle: Exclusion 2)”, the “apparent KD of MS2 coat protein” value by setting is: (input ligand: FMN 200 uM) 78.5 nM; (input ligand: none) 130 nM.

As for “CGUUCGCGAGGAUAUGCAUUCGAGUCCACUACGUGUCUGGGACUUGAGGAUCACCCAAGUAGAAGGCGCCUCCC [salish99_ex2_r4_649] (Eterna round: R97, puzzle: Exclusion 2)”, the “apparent KD of MS2 coat protein” value reads like this: (input ligand: FMN 200 uM) 71.3 nM; (input ligand: none) 47.9 nM.

“CGUUCGCGAGGAUAUGCAUUCGAGUCCAUUACGUGUCUGGGACUUGAGGAUCACCCAAGUAGAAGGCGUCUCAC [salish99_ex2_r4_646] (Eterna round: R97, puzzle: Exclusion 2)”: the “apparent KD of MS2 coat protein” value by setting is: (input ligand: FMN 200 uM) 135 nM; (input ligand: none) 154 nM.

As to “CGUUGGUCAGGAUAUGGUGGGCUGGUCGCGCGGCCGGGUGGCUAGAAGGGACAUGAGGAUCACCCAUGUACGGC [excls4-IX] (Eterna round: R96, puzzle: Exclusion 4)”, the “apparent KD of MS2 coat protein” value is 60.3 nM (input ligand: FMN 200 uM), 30.1 nM under setting [1] and 48.9 nM (input ligand: none).

For the sequence “CGUUGUAUAGGAUAUACAUGAGGAUCACCCAUGUGAAAUUAUAGUGAGGAAAUGAAAAGUAGAAGGGUAUGACA [Mod of Mat 7 - Jieux - Exclusion 3] (Eterna round: R97, puzzle: Exclusion 3)”, the “apparent KD of MS2 coat protein” value is, setting by setting: (input ligand: FMN 200 uM) 35.5 nM; (input ligand: none) 45.3 nM.

As for “CUAAAUCAUGUAGGAUAUGCGUGGCAAAGCUAUGCAGAAGGACAUGAGGAUCACCCAUGUCAUUCCGUCUGGGAACAGACGGGA [Mat - Exclusion NG 1 - Mod of JL - D52] (Eterna round: R96, puzzle: Exclusion NG 1)”, the “apparent KD of MS2 coat protein” value reads like this: (input ligand: FMN 200 uM) 158 nM; under setting [1], 17.5 nM; (input ligand: none) 24.5 nM.

As for “CUAAAUCAUGUAGGAUAUGCGUGGCAAAGCUAUGCAGAAGGACAUGAGGAUCACCCAUGUGCUUCCGUCUGCGUACAGACGGUA [Mat - Exclusion NG 1 - Mod of JL - D21] (Eterna round: R96, puzzle: Exclusion NG 1)”, the “apparent KD of MS2 coat protein” value reads like this: (input ligand: FMN 200 uM) 551 nM; under setting [1], 79.2 nM; (input ligand: none) 110 nM.

With “CUAAAUCAUGUAGGAUAUGCGUGGCGAAGCUAUGCAGAAGGACAUGAGGAUCACCCAUGUCUUUCCGUCUGCGUACAGACGGAA [JL ENG1 1.19] (Eterna round: R96, puzzle: Exclusion NG 1)”, the “apparent KD of MS2 coat protein” value was 303 nM (input ligand: FMN 200 uM), 17.3 nM under setting [1] and 23.5 nM (input ligand: none).

Consider “CUAAAUCAUGUAGGAUAUGCGUGGCGAAGCUAUGCAGAAGGACAUGAGGAUCACCCAUGUGCUUCCGUCUGCGUACAGACGGUA [JL ENG1 1.16] (Eterna round: R96, puzzle: Exclusion NG 1)”, for which the “apparent KD of MS2 coat protein” value was 136 nM (input ligand: FMN 200 uM), 59.7 nM under setting [1] and 83.3 nM (input ligand: none).

With “CUAGAGUGAGGAUAUACGAGAUCGAAAGAUCGGCGAUCCCUACAUGAGGAUCACCCAUGUAGAAGGCACUCUAG [Mod 12 - Jieux - Exclusion 2] (Eterna round: R97, puzzle: Exclusion 2)”, the “apparent KD of MS2 coat protein” value was found to be 115 nM (input ligand: FMN 200 uM) and 16 nM (input ligand: none).

For the sequence “CUAGAUCUUCGGAUCUAGGACAUGAGGAUCACCCAUGUCACGAGCAGAUCUUCAUGCAAGCUUUUUGCUCGUCUUAU [Sensor v3 - Turn-off variant 1 - 37] (Eterna round: R96, puzzle: Sensor v3, turn-off variant 1)”, the “apparent KD of MS2 coat protein” value stood at 27 nM (input ligand: FMN 200 uM), 339 nM under setting [1] and 29.2 nM (input ligand: none).

In the case of “CUAGAUCUUCGGAUCUAGGACAUGAGGAUCACCCAUGUCACGAGCAGAUCUUCAUGCAAGCUUUUUGCUCGUCUUAU [Sensor v3 - Turn-off variant 1 - 37] (puzzle: Sensor v3, turn-off variant 1)”, the “apparent KD of MS2 coat protein” value runs as follows: under setting [3], 27.3 nM; under setting [2], 409 nM; under setting [4], 33.4 nM.

Turning to “CUAGAUCUUCGGAUCUAGUACAUGAGGAUCACCCAUGUGACGAGUAGAUCCUCAAACAAGCUUUUUGCUCGUCUUAU [Sensor v3 - Turn-off variant 1 - 20] (Eterna round: R96, puzzle: Sensor v3, turn-off variant 1)”, the “apparent KD of MS2 coat protein” value is, setting by setting: (input ligand: FMN 200 uM) 132 nM; under setting [1], 16.4 nM; (input ligand: none) 194 nM.

For “CUAGAUCUUCGGAUCUAGUACAUGAGGAUCACCCAUGUGACGAGUAGAUCCUCAAACAAGCUUUUUGCUCGUCUUAU [Sensor v3 - Turn-off variant 1 - 20] (puzzle: Sensor v3, turn-off variant 1)”, the “apparent KD of MS2 coat protein” value is 43.3 nM under setting [3], 9.51 nM under setting [2] and 111 nM under setting [4].

Turning to “CUAGAUCUUCGGAUCUAGUACAUGAGGAUCACCCAUGUGACGAGUAUAUCUUCAAACAAGCUUUUUGCUCGUCUUAU [Sensor v3 - Turn-off variant 1 - 24] (puzzle: Sensor v3, turn-off variant 1)”, the “apparent KD of MS2 coat protein” value by setting is: under setting [3], 37.3 nM; under setting [2], 49.5 nM; under setting [4], 40.6 nM.

Consider “CUAGAUCUUCGGAUCUAGUACAUGAGGAUCACCCAUGUGACGAGUUACAUGUUUUACAAGCUUUUUGCUCGUCUUAU [Sensor v3 - Turn-off variant 1 - 13] (puzzle: Sensor v3, turn-off variant 1)”, for which the “apparent KD of MS2 coat protein” value under setting [3] turned out to be 39.4 nM, the “apparent KD of MS2 coat protein” value under setting [2] amounted to 90.7 nM and the “apparent KD of MS2 coat protein” value under setting [4] was 40.5 nM.

Regarding “CUAGCGAGUGUAGGAUAUCGGACUGUUUCAGUCUGAGAAGGACAUGAGGAUCACCCAUGUGUAGCUACGUGAGUAGCACGCUAG [JL ENG1 3.88] (Eterna round: R96, puzzle: Exclusion NG 1)”, the “apparent KD of MS2 coat protein” value (input ligand: FMN 200 uM) was 40.2 nM, the “apparent KD of MS2 coat protein” value under setting [1] was determined as 15 nM and the “apparent KD of MS2 coat protein” value (input ligand: none) came to 22.3 nM.

For “CUAGCGGAUGUAGGAUAUCGGACUGUUUCAGUCUGAGAAGGACAUGAGGAUCACCCAUGUAUAGCUACGUGAGUAGCUCGCUAG [JL ENG1 3.95] (Eterna round: R96, puzzle: Exclusion NG 1)”, the “apparent KD of MS2 coat protein” value (input ligand: FMN 200 uM) worked out at 38.1 nM, the “apparent KD of MS2 coat protein” value under setting [1] is 15.3 nM and the “apparent KD of MS2 coat protein” value (input ligand: none) was determined as 22.8 nM.

“CUAGCGGAUGUAGGAUAUCGGACUGUUUCAGUCUGAGAAGGACAUGAGGAUCACCCAUGUAUAGCUGCGUGAGUAGCUCGCUAG [JL ENG1 3.96] (Eterna round: R96, puzzle: Exclusion NG 1)”: the “apparent KD of MS2 coat protein” value runs as follows: (input ligand: FMN 200 uM) 39.2 nM; under setting [1], 17.5 nM; (input ligand: none) 19.8 nM.

On to “CUAGUAUAUCAGGAUAUGAUUUUAUAUAGUUGAUCAGAAGGGAUAACAUGAGGAUCACCCAUGUUAAGGAGUGA [JR_Ex6_Sub042] (Eterna round: R97, puzzle: Exclusion 6)”, for which the “apparent KD of MS2 coat protein” value came to 99.2 nM (input ligand: FMN 200 uM) and 38.7 nM (input ligand: none).

“CUAGUCCGAGGAUAUAUUAUGUGAAACAUGAGGAUCACCCAUGUAAUAUGAUGGAAAUAAAUAGAAGGCGGACUAG [Mat - Exclusion 5 - JL mod - D33] (puzzle: Exclusion 5)”: the “apparent KD of MS2 coat protein” value runs as follows: under setting [3], 25.7 nM; under setting [2], 30.9 nM; under setting [4], 30.2 nM.

Turning to “CUCAGACAUGAGGAUCACCCAUGUGAGGAUAUGAUGCGAUCGUCGAAAGACGAUAGCAUCAGAAGGCACAAAUG [Fiskers Ex 1 - 24] (puzzle: Exclusion 1)”, the “apparent KD of MS2 coat protein” value under setting [2] was 71.2 nM.

With “CUCAUGCCUGAGGAUAUGCUGUACAAAAGUACUGCAGAAGGCAGGACAUGAGGAUCACCCAUGUGGCGAAAGCC [Omei Ex G10] (Eterna round: R97, puzzle: Exclusion 6)”, the “apparent KD of MS2 coat protein” value reads like this: (input ligand: FMN 200 uM) 13.4 nM; (input ligand: none) 198 nM.

For “CUCAUGUGAGGAUAUGUGAUCUGCUUUCUGUGUAGAUGAUCACAGAAGGCACAUGAGGAUCACCCAUGUAGAUC [Ex4 - 3 - 28] (Eterna round: R96, puzzle: Exclusion 4)”, the “apparent KD of MS2 coat protein” value is, setting by setting: (input ligand: FMN 200 uM) 65.7 nM; under setting [1], 93.9 nM; (input ligand: none) 91 nM.

“CUCAUGUGAGGAUAUGUGAUCUGCUUUCUGUGUAGAUGAUCACAGAAGGCACAUGAGGAUCACCCAUGUAGAUC [Ex4 - 3 - 28] (puzzle: Exclusion 4)”: under setting [2], the “apparent KD of MS2 coat protein” value is 67.5 nM.
